Paper PMC8196545 (Cell reports, 2021)

B1: c8452 (antibody, V domains shown)
VH: EVQLDQSGAEMRKPGTTVKISCKVSGYTTTTDYYVHWVQQAPGKGPQWVGLINVEDGDTIYAEAFQGRVSITADTSKRRVFLDLSGLTSEDSALYFCTTQSLETDTGDYVSAFDSWGQGTLVSVSP
VL: QSVLTQPPSVSAAPGQKVIISCSGRTSSVGTNFVSWYQQVPGAAPKLLIYDNENRPSGISDRFSASTSGTSATLAITALQSGDEADYYCGTWDSGLNPAIFVFGTGTRVSVL
B2: c6539 (antibody, V domains shown)
VH: QVRLIQSGTEVARPGSSVRVSCQVPGDILDKNAVAWVRQAPGQVPEFMGGLPSNFAYGVRAQKFEDRLSIIPDRSTNTVDMILRSVTSHDTAIYYCVTCPHRTTVIMSFYFEFWGQGTLVAVSS
VL: DVTVTQSPASVSASVGDRVTISCRASEDLMGRLAWYQQKPGHAPKLLISHTSTLQSGVPSRFTGSGSGADFTLTISSLQPEDSATYYCQQAQRFPPTFGQGTRLEIK
B3: c9368 (antibody, V domains shown)
VH: QMQLVQSGAELKKPGSSVKVSCKASGGTVSSESVSWVRQAPGHGLEWMGGIIPMFGATNYAQRFQGRVTITADTSTSTAYMELRGLKFEDTAMYYCAREGDPGDYDSGRGLSNAFDIWGQGTMVSVSS
VL: EIVMTQSPGTLSVSPGERATLSCRASQSVSSNLAWYQQKPGQAPRLLIYGASTRATGIPARFIGSGSGTEFTLTISSLQSEDLAIYYCQQYNSWPPQYTFGQGTKLEIK
B4: c5482 (antibody, V domains shown)
VH: EVQLVESGGGLAQPGGSLRLSCAASGFDFNNYWFYWVRQAPGRGLVWVARVNADGSNTRYVDSVRGRFTISRDSAKKIVYLEMNSVRDEDTAIYYCSRDTFVRVSSTHGYWSGMDVWGHGTTVTVAS
VL: SNELTQPPSVSVSPGQTATITCSGDVLSRQFVYWYQQKPGRAPVLVMYKDNERPSGIPERFSASSSGTRVTLTISGVQAEDEADYYCQSADNNGAHVFGTGTSVIVL
B5: c9517 (antibody, V domains shown)
VH: QVKLQESGPGLVKPSETLSLTCVVSGVSISQSDYFWNWLRQTPGKGLEWLGFISYSGDSFFNPSLGSRLAMSVDTSSNHISLSLKSMTAADAAVYYCARTFCDDVKCYPLFDSWGHGKLVAVSS
VL: DIVMTQSPDSLPLSPGERASINCQSSQSVLYSSDNRNYLAWYQLKPGQPPKLLIYWASVRASGVPDRFSGSGSGTDFTLSISSLQAEDVAVYYCQQYYITPYSFGQGTKVEIR
B6: c8603 (antibody, V domains shown)
VH: AVQFLQSGAEVKKPGESLKISCQDRGYGFNDYWIAWVRQMPGKGLEWMGLIYPDDSDTRYSPSFQGQVTILADKSINTAYLQWNSLKASDSAIYYCARLMVVDERSENTFDIWGQGTVVTVSS
VL: SSGLTQSPSLSVSPGQTATVTCSGDPLVNHFASWYQQQPGQSPILVIYQDNQRPSGIPERFSGSKTGNTATLTIGETQAADEADYFCQSWDITTAGMIFGGGTKLTVL
B7: c11461 (antibody, V domains shown)
VH: AGHLVESGGKLIRPGGSLSLSCVASGFTFRNAHMTWVRQVPGQGLEWIALMKSHADGSHTDYSPSVKNRCAISRDDSTSSLYLHLYNLQLDDTGIYFCVHLSSPDEWGLGTPVTVYS
VL: HIVLTQSPVTLSGSQGDTVALSCRANESLRSHLAWYQQRPGQRPKLLIYEVSRRPPATPPRFSGSGSGTDFTLIIRGLEPEDSAVYYCQQGDFWPFSFGQGTNLEIT
B8: c5407 (antibody, V domains shown)
VH: QMQLQESGGGRVRPLETLSLACSVSGGSISGDGYYWTWIRQTPGRALEWIGHIHHYGITNYNPSLKSRLTISLDKPKNQFFLTLTSVTVADTALYFCARTFYTFWSGPHDFLDLWGHGTAVIISL
VL: EIVMTQSPVTLSASPGERVALSCRASQSISTKLAWYQQRPGQAPTLLISGASSRASGTPARFSGSGSGADFTLTISTLQPEDFVLYFCQQYKEWPLTFGPGTKLEIK
B9: c2785 (antibody, V domains shown)
VH: QVQLVQSGAEMKKPGSSVKVSCKASGGSFRSFTVNWVRQAPGQGLEWVGRIIAIFGSVDYAQKFQGRVTISADESTSTFYMDIRSLKSEDTAVYYCVRDGLVGGRDFWGQGTQVTVSS
VL: EIVLTQSPGTLSLSPGERATLFCRASQSIKKNYVAWYQQNPGQAPRLLIYGASSRATGTPDRFSGSGSGTDFTLTISRLEPEDFAVYYCQQYGSAQYSFGQGTKLEIK
B10: c9433 (antibody, V domains shown)
VH: QVQLVQSAAELRKPGESVKVSCKASGYRFTSYAISWVRQAPGQGLEWMGWMSPHSRTANYAQRFQGRVTMTTDTSTSTASMELRTLRSDDTAIYYCARRVYDWDIKETRLDPWGQGTLVTVSS
VL: not shown
B11: c8597 (antibody, V domains shown)
VH: EVKLEASGGGLAQPGQSLRLSCIGSGFKFADYGLSWVRQTPGKGLQWVGFIRGRGSEATKHYAASVAGRFSMSRDDSKNIAYLQMKNLKTYDTGVYYCAREQYSFDFWSGYEDPYYYYMDLWGRGTTVTVSS
VL: DIQMTQSPAALSASIGDRVTISCRASQNIRDWVAWYQQKPGKAPNLLIYRASTLQTAIPSRFSASGFGTDFTLTISSLQPDDFATYFCQHYNSHFTGYSFGQGTKLEIK
B12: c9596 (antibody, V domains shown)
VH: EVQLVQSGAEVKKPGTTIKISCKVSGYSFTDSFIHWLKQTPGKGPEWMGLIDPEASDGNKLYAERFQGRLTITADTTTDTAYMELSSLTSDDTAIYYCASQSPSFSDNSRFYGFFDHWGQGTLVNVAS
VL: DIVMTQSPDSLTVSLGERATFNCKSSQSVLDSSDNKNYLSWYQQKPGRPPKLLIYWASIRRSGVPDRFSGSGSGTDFTLTISSLQAEDAAVYFCQQYHTAPFTFGPGTKVDIK
B13: c27194 (antibody, V domains shown)
VH: QVHLVQSGDELKKPGSSVKVSCTAAGGTLNKYPITWVRQAPGQGLEWMGTLSPLFGTTDYGQKFQGRLTITTDGSAAHMVLAALTPDDTAVYFCATDKAMGVLPALHFWGQGTLITVSS
VL: EIVLTQSPGTLFLSPGERASLSCRASQNIGGLLAWYQQKPGQSPRLLIYDASNRATGIPARFSGSGSGTDFTLTISSLEPGDIAIYFCQQRSSWPVTFGGGTKVQIK
B14: c754 (antibody, V domains shown)
VH: QVQLVQSGPEVKKPGASARVSCKASGYMFSNNGISWVRQAPGQGLEWMGWISPQNGETLYAHKFQGRVSLTMDTSTNTAFLELTRLRSDDTAVYFCAREAHEDCGEENCFAETWLDTWGQGTQIIVSS
VL: QSVLTQPPSASGTPGQRITMPCSGSNSNIGRRSVCWFQQFPGAAPKVVLYKDSQRPSGVPDRFSGSKSGTSASLTISGLRSDDEADYFCAAWDDSLNVWAFGGGTKLTVL
B15: c7487 (antibody, V domains shown)
VH: AVTLRQSASEVKKPGTTLKMSCKGSGFSFAESFIYWFRQAPGKRPEYLGLIVPGVSDTVYPDNLKARVAITADTSIETVYLQLSSLTSEDTAVYFCATTTYCSPETCEVAFDVWGQGTTIIVSA
VL: QSALTQPPSASGTPGQRVTIPCSGGSSNVGNNFVSWYQQLPGTAPRLLIYQDNVRPSGVPDRFSGSKSGASASLVISGLRSEDEADYYCCSWEDSLRGPLFGGGTKVTVL
B16: c7484 (antibody, V domains shown)
VH: AVHLTQSGTEVKRPGTSVRISCKGSGFVFRDSFIYWLRQAPGKGPQYLGLIDPGNADTVYPDNFKDRVSITADTSVSTTYLELRRLQFDDTALYFCATTTYCSADSCELALDVWGQGTTVTVSS
VL: QSLLTQPPSASGAPGQSVTISCSGGASNIENNYVVWYQQVPGTAPKLIIYQDNVRPSGVPDRFSGSKSGASGSLLISGLRSEDEADYYCSSWDDSVRGPLFGGGTKVTVL

Biological target: HIV-1 NL4-3 Env on infected cells (HIV-1 group M subtype B, NL4-3 (pNL4-3 …, strain))

Row | Binder | binding result
1 | B1 | binds
2 | B2 | binds
3 | B3 | binds
4 | B4 | binds
5 | B5 | binds
6 | B6 | binds
7 | B7 | binds
8 | B8 | binds
9 | B9 | binds
10 | B10 | binds
11 | B11 | binds
12 | B12 | binds
13 | B13 | binds
14 | B14 | binds
15 | B15 | binds
16 | B16 | binds
